Assay results reported in patent publication US20170267986A1, “GENERATION OF MANNOSE-6-PHOSPHATE CONTAINING RECOMBINANT ALPHA-N-ACETYL GLUCOSAMINIDASE” (SHIRE HUMAN GENETIC THERAPIES, INC., priority 2014, published 2017).
Each block holds one molecule with its values, some of them ahead of it.

Assays:
[1] = target: T1, Recombinant human Naglu (rhNaglu)
T1 chain: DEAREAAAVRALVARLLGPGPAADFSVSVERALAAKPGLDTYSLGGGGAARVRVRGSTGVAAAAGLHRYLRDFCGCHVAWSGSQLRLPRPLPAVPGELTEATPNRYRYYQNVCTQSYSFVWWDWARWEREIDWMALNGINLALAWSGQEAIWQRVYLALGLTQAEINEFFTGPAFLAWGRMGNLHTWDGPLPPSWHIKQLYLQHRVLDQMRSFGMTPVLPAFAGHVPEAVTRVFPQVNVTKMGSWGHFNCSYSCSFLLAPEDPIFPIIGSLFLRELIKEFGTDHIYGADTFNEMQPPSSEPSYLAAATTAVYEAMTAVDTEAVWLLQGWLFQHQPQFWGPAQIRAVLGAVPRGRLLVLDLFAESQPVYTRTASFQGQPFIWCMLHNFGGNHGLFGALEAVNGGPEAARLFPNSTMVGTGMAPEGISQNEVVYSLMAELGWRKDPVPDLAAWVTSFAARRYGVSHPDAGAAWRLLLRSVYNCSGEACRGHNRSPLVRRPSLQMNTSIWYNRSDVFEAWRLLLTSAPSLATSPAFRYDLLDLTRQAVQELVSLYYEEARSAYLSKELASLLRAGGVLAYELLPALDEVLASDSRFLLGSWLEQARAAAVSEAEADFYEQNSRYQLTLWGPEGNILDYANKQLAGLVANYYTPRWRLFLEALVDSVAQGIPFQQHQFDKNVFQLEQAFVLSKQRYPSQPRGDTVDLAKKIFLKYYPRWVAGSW

[2] = target: T2, Naglu-Kif, a high-mannose-containing recombinant human Naglu (before sGNPT modification)
T2 chain: T1 chain

[3] = target: T3, rhNaglu (Homo sapiens, UniProt P54802); experiment: Naglu substrate analysis: hydrolysis of UDP-sugars by rhNaglu, PAD-HPLC; format: biochemical; conditions: 0.8 mM UDP-GlcNAc, 37° C., 1 hour
T3 construct: The N-terminal 23 amino acids are cleaved as the precursor protein enters the endoplasmic reticulum, resulting in a mature form; made in house; host or cells: human fibrosarcoma HT1080 cell clone over-expressing rhNaglu
T3 sequence (P54802 24-743): T1 chain
Method: Recombinant human Naglu was co-incubated with uridine diphosphate N-acetylglucosamine (UDP-GlcNAc) or uridine diphosphate N-acetyl galactosamine (UDP-GalNAc). UDP-GlcNAc, GlcNAc (N-acetylglucosamine) and UDP-GalNAc were detected using PAD-HPLC (Pulsed Amperometric Detection-High Pressure Liquid Chromatography) that was modified after Chavaroche et al. 2011.
Recombinant human Naglu was dialyzed into Tris buffer (40 mM Tris pH 7.15, 100 mM NaCl, 4 mM MgCl2, and 4 mM MnCl2) and concentrated with VivaSpin® sample concentrators having a 30 kDa cut-off (Viva Products, Inc., Littleton, Mass.). […]
Samples were then subjected to centrifugation at 10,000 rpm, and the resulting supernatants were loaded on PA10 columns and detected by PAD-HPLC (Pulsed Amperometric Detection-High Pressure Liquid Chromatography) (Dionex ICS-3000 Ion Chromatography System (Thermo Fisher Scientific, Inc., Sunnyvale, Calif.)). […] The peak areas for the eluted UDP-GlcNAc were measured, and the reductions of the area under the curve (AUC) in response to increased concentrations of rhNaglu were determined (FIG. 1A). A new peak at 10.7 minutes was detected on the chromatograms of samples treated with concentrations of rhNaglu of 23.4 μg/ml and above. […] The peak areas for the eluted GlcNAc were measured, and the increases of the AUC in response to increased concentrations of rhNaglu were determined (FIG. 1B). […]

[4] = target: T4, CI-M6PR (Homo sapiens, UniProt P11717); experiment: Plate based sCI-M6PR binding assay (ELISA); conditions: treated with sGNPT under the same conditions as Naglu-Kif
T4 construct: the secreted sCI-M6PR was purified from the tissue culture medium; made in house
Method: (1) Generation of sCI-M6PR (soluble CI-M6PR)—Full length M6PR was expressed in genetically modified tissue culture cells, and the secreted sCI-M6PR was purified from the tissue culture medium using an aminophenyl-M6P conjugated resin (Beljaars et al., 1999). N-terminal sequencing and LC/MS/MS analysis of the obtained protein confirmed the amino acid sequence of the sCI-M6PR, and MALDI analysis confirmed that its molecular mass was 279,492 Da.
100 μl of sCI-M6PR(2.5 μg/ml) in DPBS were coated on MaxiSorp® Nunc-Immuno flat-bottom 96-well plates (Thermo Fisher Scientific, Inc., Sunnyvale, Calif.). After incubation for 1 hour at 37° C., the plates was washed with ELISA wash buffer (0.1% Tween-20 in DPBS). sCI-M6PR coated wells were blocked with 300 μl ELISA blocking buffer (DPBS, 2% BSA, 0.05% Tween 20) at 37° C. for 1 hour. Appropriate dilutions of sGNPT-modified Naglu-Kif (and rhNaglu as control) were made in blocking buffer and added to the wells. After 1 hour incubation at 37° C., the plates were washed with ELISA wash buffer, and 100 μl of HRP-conjugated rabbit anti-Naglu polyclonal antibody #2957 diluted in blocking buffer were added. After 1 hour incubation at 37° C., the plates was washed again with ELISA wash buffer. The ELISA was developed using TMB peroxidase substrate solution (KPL, Inc., Gaithersburg, Mass.) by following the manufacturer's protocol.
sGNPT transfers the phospho-GlcNAc group from UDP-GlcNAc to mannose sugar, and the resulting mannose-6-phosphate-GlcNAc is called the Capped-M6P. During the normal intracellular glycosylation process, the decapping enzyme (N-acetylglucosamine 1-phosphodiester α-N-acetyglucosaminidase) removes the GlcNAc from the Capped-M6P, to generate M6P. But without decapping, the Capped-M6P can also bind to CI-M6PR. Capped-M6P binds to domain 5 of CI-M6PR rather than to domain 3 or 9, as M6P does (Bohnsack et al. 2009). The amount of Capped-M6P on Naglu-Kif can be indirectly evaluated using a CI-M6PR plate binding assay. In this binding assay the affinity with which Naglu-Kif bound to CI-M6PR increased in proportion to the amount of sGNPT used (35 μg, 70 μg and 140 (corresponding to about 4.2 μM) (green, red and empty circle in FIG. 8, respectively)) to modify Naglu-Kif and thus the extent of Capped-M6P found on Naglu-Kif (FIG. 8). […] These binding reactions were repeated in two different buffer systems, i.e., in a sodium acetate buffer (40 mM NaAc pH 6.5, 10 mM MnCl2, 10 mM MgCl2) and in a Tris buffer (50 mM Tris pH 7.4, 10 mM MnCl2, 10 mM MgCl2), which gave similar results. Contrary to Naglu-Kif, rhNaglu was not phosphorylated by sGNPT under the same conditions due to the lack of high-mannose glycans.

B1: Soluble human N-acetylglucosamine-1-phosphotransferase (sGNPT), HPC4 tagged (protein)
chain: DEDQVDPRLIDGKWSRDQYHVLFDSYRDNIAGKSFQNRLCLPMPIDVVYTWVNGTDLELLKELQQVREQMEEEQKAMREILGKNTTEPTKKSEKQLECLLTHCIKVPMLVLDPALPANITLKDLPSLYPSFHSASDIFNVAKPKNPSTNVSVVVFDSTKDVEDAHSGLLKGNSRQTVWRGYLTTDKEVPGLVLMQDLAFLSGFPPTFKETNQLKTKLPENLSSKVKLLQLYSEASVALLKLNNPKDFQELNKQTKKNMTIDGKELTISPAYLLWDLSAISQSKQDEDISASRFEDNEELRYSLRSIERHAPWVRNIFIVTNGQIPSWLNLDNPRVTIVTHQDVFRNLSHLPTFSSPAIESHIHRIEGLSQKFIYLNDDVMFGKDVWPDDFYSHSKGQKVYLTWPVPNCAEGCPGSWIKDGYCDKACNNSACDWDGGDCSGNSGGSRYIAGGGGTGSIGVGQPWQFGGGINSVSYCNQGCANSWLADKFCDQACNVLSCGFDAGDCGQDHFHELYKVILLPNQTHYIIPKGECLPYFSFAEVAKRGVEGAYSDNPIIRHASIANKWKTIHLIMHSGMNATTIHFNLTFQNTNDEEFKMQITVEVDTREGPKLNSTAQKGYENLVSPITLLPEAEILFEDIPKEKRFPKFKRHDVNSTRRAQEEVKIPLVNISLLPKDAQLSLNTLDLQLEHGDITLKGYNLSKSALLRSFLMNSQHAKIKNQAIITDETNDSLVAPQEKQVHKSILPNSLGVSERLQRLTFPAVSVKVNGHDQGQNPPLDLETTARFRVETHTQKTIGGNVTKEKPPSLIVPLESQMTKEKKITGKEKENSRMEENAENHIGVTEVLLGRKLQHYTDSYLGFLPWEKKKYFQDLLDEEESLKTQLAYFTDSKNRARYKRDTFADSLRYVNKILNSKFGFTSRKVPAHMPHMIDRIVMQELQDMFPEEFDKTSFHKVRHSEDMQFAFSYFYYLMSAVQPLNISQVFDEVDTDQSGVLSDREIRTLATRIHELPLSLQDLTGLEHMLINCSKMLPADITQLNNIPPTQESYYDPNLPPVTKSLVTNCKPVTDKIHKAYKDKNKYRFEIMGEEEIAFKMIRTNVSHVVGQLDDIRKNPRKFVCLNDNIDHNHKDAQTVKAVLRDFYESMFPIPSQFELPREYRNRFLHMHELQEWRAYRDKL
in vitro phosphorylation by sGNPT [1]: rhNaglu was not phosphorylated by sGNPT under the same conditions due to the lack of high-mannose glycans | pmol M6P/pmol Naglu Kif (M6P monosaccharide quantitation by PAD-HPLC after in vitro phosphorylation; +70 ug GNPT, 50 mM Tris pH 7.4, 10 mM MnCl2, 10 mM MgCl2) (pmol M6P/pmol Naglu Kif) [2]: 1.45 | pmol M6P/pmol Naglu Kif (M6P monosaccharide quantitation by PAD-HPLC after in vitro phosphorylation; +70 ug GNPT, 50 mM sodium acetate pH 6.5, 20 mM MnCl2) (pmol M6P/pmol Naglu Kif) [2]: 0.12 | pmol M6P/pmol Naglu Kif (M6P monosaccharide quantitation by PAD-HPLC after in vitro phosphorylation; +140 ug GNPT, 50 mM sodium acetate pH 6.5, 20 mM MnCl2) (pmol M6P/pmol Naglu Kif) [2]: 0.64

minimum rhNaglu concentration required for detection of hydrolysis of UDP-GlcNAc [3]: 23.4 µg/mL | binding to CI-M6PR [4]: did not bind
B2: rhNaglu: recombinant human alpha-N-acetyl-glucosaminidase purified from human fibrosarcoma HT1080 cells engineered to over-express it (protein)
chain: T1 chain
